This passage reports cell-free CD73 enzyme inhibition, maximal inhibition and Cell internalization EC50 (nM), Fab-ZAP saporin assay, MDA-MB-231 results from patent publication US20260000781A1, “FC CONJUGATES INCLUDING AN INHIBITOR OF CD73 AND USES THEREOF” (Cidara Therapeutics, Inc., priority 2022, published 2026).

Test [1] addresses T1, recombinant human CD73 enzyme (human) (UniProt P21589).
T1 sequence (looked up): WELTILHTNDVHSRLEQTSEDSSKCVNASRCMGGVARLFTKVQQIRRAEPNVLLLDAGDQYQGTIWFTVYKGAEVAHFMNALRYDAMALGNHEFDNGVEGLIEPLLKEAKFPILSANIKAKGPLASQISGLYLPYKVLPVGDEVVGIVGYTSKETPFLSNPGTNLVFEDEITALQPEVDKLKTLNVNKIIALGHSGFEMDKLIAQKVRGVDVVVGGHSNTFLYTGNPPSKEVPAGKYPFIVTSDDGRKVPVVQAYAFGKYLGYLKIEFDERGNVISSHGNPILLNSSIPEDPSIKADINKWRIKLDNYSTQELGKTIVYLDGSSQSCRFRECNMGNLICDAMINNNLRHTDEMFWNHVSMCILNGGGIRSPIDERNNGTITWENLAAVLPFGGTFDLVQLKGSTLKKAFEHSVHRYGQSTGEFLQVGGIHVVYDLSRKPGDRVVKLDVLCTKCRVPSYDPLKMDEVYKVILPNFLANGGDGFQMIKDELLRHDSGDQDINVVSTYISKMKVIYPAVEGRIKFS
Kind of test: cell-based or functional assay.

Test [2] addresses T2, human CD73 expressed on cells (human) (UniProt P21589).
T2 sequence (looked up): T1 sequence (looked up)
Kind of test: cell-based or functional assay.

For the substance Oleclumab (antibody), the cell-free CD73 enzyme inhibition, maximal inhibition in test [1] worked out at 80%.

As for hIgG1 isotype control (antibody), the Cell internalization EC50 (nM), Fab-ZAP saporin assay, MDA-MB-231 in test [2] is greater than 100 nM.
